{"source": "patent US20240083958A1", "about": "“G PROTEIN PEPTIDOMIMETICS” (VRIJE UNIVERSITEIT BRUSSEL, priority 2020, published 2024)", "binders": {"B1": {"name": "compound 24 (peptide)", "peptide": "FNECRDKIQRMHLRQYELL", "HELM": "PEPTIDE1{[ac].F.N.E.C.R.D.K.I.Q.R.M.H.L.R.Q.Y.E.L.L}$PEPTIDE1,PEPTIDE1,4:R3-8:R3$$$V2.0", "SMILES": "CC[C@H](C)[C@H](NC(=O)[C@@H]1CCCCNC(=O)CC[C@H](NC(=O)[C@H](CC(N)=O)NC(=O)[C@H](Cc2ccccc2)NC(C)=O)C(=O)N[C@@H](CS)C(=O)N[C@@H](CCCNC(=N)N)C(=O)N[C@@H](CC(=O)O)C(=O)N1)C(=O)N[C@@H](CCC(N)=O)C(=O)N[C@@H](CCCNC(=N)N)C(=O)N[C@@H](CCSC)C(=O)N[C@@H](Cc1c[nH]cn1)C(=O)N[C@@H](CC(C)C)C(=O)N[C@@H](CCCNC(=N)N)C(=O)N[C@@H](CCC(N)=O)C(=O)N[C@@H](Cc1ccc(O)cc1)C(=O)N[C@@H](CCC(=O)O)C(=O)N[C@@H](CC(C)C)C(=O)N[C@@H](CC(C)C)C(=O)O"}, "B2": {"name": "compound 66 (peptide)", "peptide": "QRMHLRQYEXL", "HELM": "PEPTIDE1{[ac].Q.R.M.H.L.R.Q.Y.E.[Cha].L}$$$$V2.0", "SMILES": "CSCC[C@H](NC(=O)[C@H](CCCNC(=N)N)NC(=O)[C@H](CCC(N)=O)NC(C)=O)C(=O)N[C@@H](Cc1c[nH]cn1)C(=O)N[C@@H](CC(C)C)C(=O)N[C@@H](CCCNC(=N)N)C(=O)N[C@@H](CCC(N)=O)C(=O)N[C@@H](Cc1ccc(O)cc1)C(=O)N[C@@H](CCC(=O)O)C(=O)N[C@@H](CC1CCCCC1)C(=O)N[C@@H](CC(C)C)C(=O)O"}, "B3": {"name": "compound 84 (peptide)", "peptide": "FNDCRDIIQRMHLRQYELX", "HELM": "PEPTIDE1{[ac].F.N.D.C.R.D.I.I.Q.R.M.H.L.R.Q.Y.E.L.[Cha]}$$$$V2.0", "SMILES": "CC[C@H](C)[C@H](NC(=O)[C@H](CC(=O)O)NC(=O)[C@H](CCCNC(=N)N)NC(=O)[C@H](CS)NC(=O)[C@H](CC(=O)O)NC(=O)[C@H](CC(N)=O)NC(=O)[C@H](Cc1ccccc1)NC(C)=O)C(=O)N[C@H](C(=O)N[C@@H](CCC(N)=O)C(=O)N[C@@H](CCCNC(=N)N)C(=O)N[C@@H](CCSC)C(=O)N[C@@H](Cc1c[nH]cn1)C(=O)N[C@@H](CC(C)C)C(=O)N[C@@H](CCCNC(=N)N)C(=O)N[C@@H](CCC(N)=O)C(=O)N[C@@H](Cc1ccc(O)cc1)C(=O)N[C@@H](CCC(=O)O)C(=O)N[C@@H](CC(C)C)C(=O)N[C@@H](CC1CCCCC1)C(=O)O)[C@@H](C)CC"}, "B4": {"name": "compound 67 (peptide)", "peptide": "RDIIQRMHLRQYEXL", "HELM": "PEPTIDE1{[ac].R.D.I.I.Q.R.M.H.L.R.Q.Y.E.[Cha].L}$$$$V2.0", "SMILES": "CC[C@H](C)[C@H](NC(=O)[C@H](CC(=O)O)NC(=O)[C@H](CCCNC(=N)N)NC(C)=O)C(=O)N[C@H](C(=O)N[C@@H](CCC(N)=O)C(=O)N[C@@H](CCCNC(=N)N)C(=O)N[C@@H](CCSC)C(=O)N[C@@H](Cc1c[nH]cn1)C(=O)N[C@@H](CC(C)C)C(=O)N[C@@H](CCCNC(=N)N)C(=O)N[C@@H](CCC(N)=O)C(=O)N[C@@H](Cc1ccc(O)cc1)C(=O)N[C@@H](CCC(=O)O)C(=O)N[C@@H](CC1CCCCC1)C(=O)N[C@@H](CC(C)C)C(=O)O)[C@@H](C)CC"}, "B5": {"name": "compound 82 (peptide)", "peptide": "FNDCRDIIQRMHLRQXELL", "HELM": "PEPTIDE1{[ac].F.N.D.C.R.D.I.I.Q.R.M.H.L.R.Q.[Cha].E.L.L}$$$$V2.0", "SMILES": "CC[C@H](C)[C@H](NC(=O)[C@H](CC(=O)O)NC(=O)[C@H](CCCNC(=N)N)NC(=O)[C@H](CS)NC(=O)[C@H](CC(=O)O)NC(=O)[C@H](CC(N)=O)NC(=O)[C@H](Cc1ccccc1)NC(C)=O)C(=O)N[C@H](C(=O)N[C@@H](CCC(N)=O)C(=O)N[C@@H](CCCNC(=N)N)C(=O)N[C@@H](CCSC)C(=O)N[C@@H](Cc1c[nH]cn1)C(=O)N[C@@H](CC(C)C)C(=O)N[C@@H](CCCNC(=N)N)C(=O)N[C@@H](CCC(N)=O)C(=O)N[C@@H](CC1CCCCC1)C(=O)N[C@@H](CCC(=O)O)C(=O)N[C@@H](CC(C)C)C(=O)N[C@@H](CC(C)C)C(=O)O)[C@@H](C)CC"}, "B6": {"name": "compound 26 (peptide)", "peptide": "Ac-FN[S5]CRD[S5]IQRMHLRQYELL-OH", "modifications": "staple 3-7", "SMILES": "CC[C@H](C)[C@H](NC(=O)[C@]1(C)CCCC=CCCC[C@](C)(NC(=O)[C@H](CC(N)=O)NC(=O)[C@H](Cc2ccccc2)NC(C)=O)C(=O)N[C@@H](CS)C(=O)N[C@@H](CCCNC(=N)N)C(=O)N[C@@H](CC(=O)O)C(=O)N1)C(=O)N[C@@H](CCC(N)=O)C(=O)N[C@@H](CCCNC(=N)N)C(=O)N[C@@H](CCSC)C(=O)N[C@@H](Cc1c[nH]cn1)C(=O)N[C@@H](CC(C)C)C(=O)N[C@@H](CCCNC(=N)N)C(=O)N[C@@H](CCC(N)=O)C(=O)N[C@@H](Cc1ccc(O)cc1)C(=O)N[C@@H](CCC(=O)O)C(=O)N[C@@H](CC(C)C)C(=O)N[C@@H](CC(C)C)C(=O)O"}}, "assay_in_all_cases": "cell-based or functional assay", "key": {"human β2AR [1]": {"target": "T1, human β2AR (human, UniProt P07550 2-365)"}, "human β2AR [2]": {"target": "T1, human β2AR", "remark": "listed apart in the source"}, "human β2AR [3]": {"target": "T1, human β2AR", "remark": "listed apart in the source"}, "human β2AR [4]": {"target": "T1, human β2AR", "remark": "listed apart in the source"}, "human β2AR [5]": {"target": "T1, human β2AR", "remark": "listed apart in the source"}, "human β2AR [6]": {"target": "T1, human β2AR", "remark": "listed apart in the source"}, "human β2AR [7]": {"target": "T1, human β2AR", "remark": "listed apart in the source"}}, "note": "Read-outs that look alike come from different tables or passages of the source. Bridge positions count the residues as written; N and C are the ends. Square brackets hold non-standard residues; d marks the D form. S5 = C=CCCC[C@](C)(N)C(=O)O"}
{"binder": "B1", "values": [{"measurement": "IC50 (nM) of isoproterenol, [3H]-DHA RLA, peptidomimetic present", "setting": "human β2AR [1]", "value": 97.3, "unit": "nM"}, {"measurement": "Shift", "setting": "human β2AR [1]", "value": 7}, {"measurement": "Shift (averaged)", "setting": "human β2AR [2]", "value": 7}]}
{"binder": "Ac-NARRIFNDCRDIIQRMHLRQYELL-OH", "note": "[compound 72]", "values": [{"measurement": "IC50 (nM) of isoproterenol, [3H]-DHA RLA, peptidomimetic present", "setting": "human β2AR [3]", "value": 22.2, "unit": "nM"}, {"measurement": "Shift", "setting": "human β2AR [3]", "value": 46}, {"measurement": "Shift (averaged)", "setting": "human β2AR [4]", "value": 47}]}
{"binder": "B2", "values": [{"measurement": "Shift (averaged)", "setting": "human β2AR [4]", "value": 2}, {"measurement": "IC50 (nM) of isoproterenol, [3H]-DHA RLA, peptidomimetic present", "setting": "human β2AR [5]", "value": 551, "unit": "nM"}, {"measurement": "Shift", "setting": "human β2AR [5]", "value": 1}]}
{"binder": "B3", "values": [{"measurement": "Shift (averaged)", "setting": "human β2AR [4]", "value": 12}, {"measurement": "IC50 (nM) of isoproterenol, [3H]-DHA RLA, peptidomimetic present", "setting": "human β2AR [6]", "value": 66.2, "unit": "nM"}, {"measurement": "Shift", "setting": "human β2AR [6]", "value": 12}]}
{"binder": "Ac-FN[S5]CRD[S5]IQRMHLRQYELL-OH (bridges not given here)", "note": "[compound 25]", "values": [{"measurement": "IC50 (nM) of isoproterenol, [3H]-DHA RLA, peptidomimetic present", "setting": "human β2AR [1]", "value": 485, "unit": "nM"}, {"measurement": "Shift", "setting": "human β2AR [1]", "value": 1}, {"measurement": "Shift (averaged)", "setting": "human β2AR [2]", "value": 2}]}
{"binder": "B4", "values": [{"measurement": "Shift (averaged)", "setting": "human β2AR [4]", "value": 30}, {"measurement": "IC50 (nM) of isoproterenol, [3H]-DHA RLA, peptidomimetic present", "setting": "human β2AR [5]", "value": 45.4, "unit": "nM"}, {"measurement": "Shift", "setting": "human β2AR [5]", "value": 17}]}
{"binder": "Ac-FNECRDKIQRMHLRQYELL-OH", "note": "[compound 23]", "values": [{"measurement": "IC50 (nM) of isoproterenol, [3H]-DHA RLA, peptidomimetic present", "setting": "human β2AR [1]", "value": 270, "unit": "nM"}, {"measurement": "Shift (averaged)", "setting": "human β2AR [2]", "value": 3}]}
{"binder": "Ac-RRIFNDCRDIIQRMHLRQYELL-OH", "note": "[compound 73]", "values": [{"measurement": "IC50 (nM) of isoproterenol, [3H]-DHA RLA, peptidomimetic present", "setting": "human β2AR [3]", "value": 52.6, "unit": "nM"}, {"measurement": "Shift", "setting": "human β2AR [3]", "value": 19}, {"measurement": "Shift (averaged)", "setting": "human β2AR [4]", "value": 19}]}
{"binder": "B5", "values": [{"measurement": "Shift (averaged)", "setting": "human β2AR [4]", "value": 32}, {"measurement": "IC50 (nM) of isoproterenol, [3H]-DHA RLA, peptidomimetic present", "setting": "human β2AR [6]", "value": 25.6, "unit": "nM"}, {"measurement": "Shift", "setting": "human β2AR [6]", "value": 32}]}
{"binder": "Ac-FNDCRDEIQRKHLRQYELL-OH", "note": "[compound 3]", "values": [{"measurement": "IC50 (nM) of isoproterenol, [3H]-DHA RLA, peptidomimetic present", "setting": "human β2AR [7]", "value": 408, "unit": "nM"}, {"measurement": "Shift", "setting": "human β2AR [7]", "value": 2}, {"measurement": "Shift (averaged)", "setting": "human β2AR [2]", "value": 2}]}
{"binder": "B6", "values": [{"measurement": "IC50 (nM) of isoproterenol, [3H]-DHA RLA, peptidomimetic present", "setting": "human β2AR [1]", "value": 305, "unit": "nM"}, {"measurement": "Shift", "setting": "human β2AR [1]", "value": 2}, {"measurement": "Shift (averaged)", "setting": "human β2AR [2]", "value": 2}]}
